# T1: human CD70, recombinant, N-terminally biotinylated (residues 39-193) (human, UniProt P32970 39-193, N-terminal biotin)
# T1 chain: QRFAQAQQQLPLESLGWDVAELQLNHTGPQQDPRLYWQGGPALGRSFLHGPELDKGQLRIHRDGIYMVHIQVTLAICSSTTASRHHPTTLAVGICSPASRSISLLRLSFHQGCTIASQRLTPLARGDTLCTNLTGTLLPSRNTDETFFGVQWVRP
# Target: T1, human CD70, recombinant, N-terminally …
# Test: Octet BLI steady-state
row,Binder,Kd
1,39-TC6-IV-B08 (scFv) scFv: QVQLVESGGGVVQPGGSLRLSCAASGFTFSSYAMHWVRQAPGKGLEWVAVISYDGSNKYYADSVKGRFTISRDNSKNTLYLQMNSLRAEDTAVYYCARDGHPYYYGMDVWGQGTTVTVSSGGSGGSGGSGGSQSALTQPASVSGSPGQSITISCTGTSSDVGDYNYVSWYQHHPGKAPKLMIYDVSNRPSGVSNRFSGSKSGNTASLTISGLQAEDEADYYCGSYTGSDTWVFGGGTKVTVL,41.7 nM
2,50-TC7-III-A11 (scFv) scFv: QVQLVQSGAEVKRPGASVKVSCKASGYTFTSYYMHWVRQAPGQGLEWMGIINPSGGSTSYAQKFQGRVTMTRDTSTSTVYMELSSLRSEDTAVYYCAIEPGYCSGGSCYPDAFDIWGQGTTVTVSSGGSGGSGGSGGSQSVLTQPPSASGTPGQRVTISCSGSSSNIGSDYVYWYQRVPGTAPKLLIYRDNQRPSGVPDRFSGSKSGTSASLAISGLRSDDEADYYCAAWDDSLSGWVFGGGTKVTVL,55.7 nM
3,1-TC4-I-C10 (scFv) scFv: EVQLVQSGAEVKKPGESLKISCKGSGYSFTSYWIGWVRQMPGKGLEWMGIIYPGDSDTRYSPSFQGQVTISADKSISTAYLQWSSLKASDTAMYYCAISRTESYVMDVWGQGTTVTVSSGGSGGSGGSGGSQSALTQPRSVSGSPGQSVTISCTGTSSDVGGYNYVSWYQQHPGKAPKLMIYDVTNRPSGVPDRFSASKSDNTATLTVSGVQAEDEADYYCSSYAGSHELFGGGTKLTVL,56.7 nM

# Target: 41D12 (LwH)
# Test: Octet BLI
row,Binder,Kd
1,"CD70 (ligand, N-terminal biotin) QRFAQAQQQLPLESLGWDVAELQLNHTGPQQDPRLYWQGGPALGRSFLHGPELDKGQLRIHRDGIYMVHIQVTLAICSSTTASRHHPTTLAVGICSPASRSISLLRLSFHQGCTIASQRLTPLARGDTLCTNLTGTLLPSRNTDETFFGVQWVRP",1 pM

# Target: T1, human CD70, recombinant, N-terminally …
# Test: Octet BLI
row,Kd,Binder
1,0.16 nM,R3P3H12 VHH (VHH) VHH: QVQLQESGGGLVQTGGSLRLSCTASGSIFDIVRGSWYRQAPGNQRELVAIITSGGATNYADSVAGRFTISRDSAWKALYLQMNSLKPEDTAVYFCNMESVRYRNYWGQGTQVTVSS
2,0.025 nM,R3P5A1 VHH (VHH) VHH: QVQLQESGGGLVQPGGSLRLSCTASGSIFSATRMEWYRQAPGKQRELVAIVTSGGRTNYADSVNGRFTISRDNAKNTLYLQMNNLKPEDTAVYYCKFERYDYVNYWGRGTQVTVSS

# Further lines, the binder ahead of its results:
row,Binder,Kd
1,R3aP3E8 VHH (VHH) VHH: QVQLQESGGGLVQPGGSLRLSCVASGSIFSIARMNWYRQAPGKQRELVAILNRAGRTDYADSVKGRFTISSDNAKTTVYLQMNSLKPEDTALYYCNLQTISYHDFWGQGTQVTVSS,0.027 nM
2,human CD27 fused to human Fc domain (Fc fusion) TPAPKSCPERHYWAQGKLCCQMCEPGTFLVKDCDQHRKAAQCDPCIPGVSFSPDHHTRPHCESCRHCNSGLLVRNCTITANAECACRNGWQCRDKECTECDPLPNPSLTARSSQALSPHPQPTHLPYVSEMLEARTAGHMQTLADFRQLPARTLSTHWPPQRSLCSSDFIRI,1.7 nM
3,R3aP9D10 VHH (VHH) VHH: QVQLQESGGGLVQAGGSLRLSCAAPGFTFDAYAIGWFRQAPGKEREGVICLSPSDGSTYYADSVKGRFTISSDNAKNTVYLQMNSLKPEDTAVYYCATPSWCSLKADFGSWGQGTQVTVSS,0.036 nM

# Reference: patent publication US20240252641A1 (published 2024)
